Assay results reported in publication PMC3245711.

Target: human KCNJ12 channel (pND-CTFH construct, C-terminal FLAG and octa-histidine tags) (human) (UniProt Q14500)
Test: SEC

human KCNJ12 channel (pND-CTFH construct, C-terminal FLAG and octa-histidine tags), sequence (Q14500 whole entry): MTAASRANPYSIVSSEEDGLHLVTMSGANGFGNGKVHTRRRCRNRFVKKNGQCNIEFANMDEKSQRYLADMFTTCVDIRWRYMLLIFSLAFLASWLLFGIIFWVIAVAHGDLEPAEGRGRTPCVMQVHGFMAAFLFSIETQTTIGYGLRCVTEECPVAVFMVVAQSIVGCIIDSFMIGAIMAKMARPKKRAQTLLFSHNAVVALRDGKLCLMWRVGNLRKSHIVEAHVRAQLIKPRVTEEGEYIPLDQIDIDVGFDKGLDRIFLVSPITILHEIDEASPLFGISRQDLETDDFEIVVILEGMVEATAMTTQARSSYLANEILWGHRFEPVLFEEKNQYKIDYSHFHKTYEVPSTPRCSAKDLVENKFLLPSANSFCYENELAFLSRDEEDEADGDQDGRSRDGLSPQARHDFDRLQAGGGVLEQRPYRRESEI

## human KCNJ12 channel (pND-CTFH construct, C-terminal FLAG and octa-histidine tags) (from UniProt Q14500 1-433) (natural protein)
  stoichiometry N: 4
